pKd: −log10 of the molar value.
Assays:
mini-procollagen III [1] = test: SPR; conditions: immobilized mini-procollagen III (240 RU), flow rate 50 μL/min, 25°C; for pKd: 1:1 binding model, parent: est. 1.4 nM, read off a plot
mini-procollagen III [2] = test: SPR; Biacore T200; mini-procollagen III immobilised (240 RU), C1C2 wild-type or mutants injected, 50 μL/min, 25°C, 10 mM Na-Hepes pH 7.4, 0.15 M NaCl, 5 mM CaCl2, 0.05 % P20; 1:1 binding model

Substance: C1C2 fragment of PCPE-1, wild-type control, pCEP-Pu construct (N-terminal APLA, C-terminal …) (from UniProt Q15113) R55A; L234E
- pKd (mini-procollagen III [1]): 7.27

Substance: C1C2 fragment of PCPE-1, Arg91Ala mutant (pCEP-Pu construct) (from UniProt Q15113 1-252) (domain or fragment)
- fold increase in dissociation constant against wild-type C1C2 (mini-procollagen III [2]): 50 fold

Substance: C1C2 fragment of PCPE-1, wild-type control, pCEP-Pu construct (N-terminal APLA, C-terminal …) (from UniProt Q15113) L234E
- pKd (mini-procollagen III [1]): 7.70

Substance: C1C2 fragment of PCPE-1, wild-type control, pCEP-Pu construct (N-terminal APLA, C-terminal …) (from UniProt Q15113) R55A
- response (mini-procollagen III [1]; 48 nM C1C2, response at end of association (about 100 s), parent: est. 29, read off a …): 26 RU
- pKd (mini-procollagen III [1]): 8.59

Substance: C1C2 fragment of PCPE-1, wild-type control, pCEP-Pu construct (N-terminal APLA, C-terminal …) (from UniProt Q15113) R55A; R91A; L234E
- pKd (mini-procollagen III [1]): 6.92

Substance: C1C2 fragment of PCPE-1, wild-type control, pCEP-Pu construct (N-terminal APLA, C-terminal …) (from UniProt Q15113) R91A
- pKd (mini-procollagen III [1]): 7.21
